Experimental data from patent US20240424129A1, “RECOMBINANT FUSION ANTIBODY, AND ANTIBODY-DRUG CONJUGATE AND USE THEREOF” (SUN YAT-SEN UNIVERSITY, priority 2021, published 2024).
Non-standard residues stand in square brackets, D forms with d. Residues, ends and D or L forms follow the SMILES beside them. Dolaproine = CO[C@@H]([C@@H]1CCCN1)[C@@H](C)C(=O)O; Dil = CC[C@H](C)[C@H](NC)[C@@H](CC(=O)O)OC; NMeV = CN[C@H](C(=O)O)C(C)C

B1: Fused VHH8: anti-HER2 nanobody fused with P7, His6 tag after the peptide, SEQ ID NO: 40 (protein)
VHH: EVQLVESGGGLVQAGGSLRLSCAASGITFSINTMGWYRQAPGKQRELVALISSIGDTYYADSVKGRFTISRDNAKNTVYLQMNCLKPEDTAVYYCKRFRTAAQGTDYWGQGTQVTVSSLPETGGGSDEDLLHIHHHHHH
modifications: linker, P7 peptide, His6 tag
B2: Fused VHH8-MMAF (conjugate)
VHH: B1 VHH
B3: VHH0-MMAF (conjugate)
VHH: EVQLVESGGGLVQAGGSLRLSCAASGITFSINTMGWYRQAPGKQRELVALISSIGDTYYADSVKGRFTISRDNAKNTVYLQMNCLKPEDTAVYYCKRFRTAAQGTDYWGQGTQVTVSSHHHHHH
B4: Fused VHH7: anti-HER2 nanobody fused with lysosome-targeting peptide P7, SEQ ID NO: 39 (protein)
chain: EVQLVESGGGLVQAGGSLRLSCAASGITFSINTMGWYRQAPGKQRELVALISSIGDTYYADSVKGRFTISRDNAKNTVYLQMNCLKPEDTAVYYCKRFRTAAQGTDYWGQGTQVTVSSHHHHHHLPETGGGSDEDLLHI
B5: Fused VHH7-MMAF (conjugate)
VHH: B4 chain

How the values were obtained:
Type in all cases: cell-based, human
MDA-MB-231 cells = assay: In-vitro cytotoxicity, HER2-negative negative control; details: MDA-MB-231, FIG. 15
Method: (§1) In this example, human breast cancer cell line SKBR3 with high expression of HER2 and human ovarian cancer cell line SKOV3 with high expression of HER2 were chosen to evaluate the ability of the recombinant-fusion-antibody-drug conjugates to inhibit the growth of cancer cells. The recombinant-fusion-antibody-drug conjugates of different concentrations were added to a 96-well plate seeded with SKBR3 or SKOV3 cells. After treatment for 48 h, the viability of cells was calculated using a CCK8 kit.
In addition, in this example, the HER2-negative MDA-MB-231 cells were chosen as a negative control to compare the ability of fused VHH7-MMAF, fused VHH8-MMAF, VHH0-MMAF, VHH0, and MMAF to inhibit the growth of cancer cells.

SKBR3 cells [1] = assay: In-vitro cytotoxicity, CCK8 cell viability; details: SKBR3, 48 h; for maximal killing: CCK8; for IC50: CCK8, mean n=3
Method: as §1
Cell viability was measured using different concentrations of MMAF, VHH0-MMAF, or different recombinant-fusion-nanobody-drug conjugates (fused VHH1-MMAF to fused VHH26-MMAF). The half-maximal inhibitory concentration IC50 was calculated (FIGS. 14A-14C, and Table 7). FIGS. 14A, 14B and 14C respectively show the viability of SKBR3 cells treated with the recombinant-fusion-nanobody-drug conjugates, including fused VHH1-MMAF to fused VHH6-MMAF, fused VHH7-MMAF to fused VHH22-MMAF, and fused VHH23-MMAF to fused VHH26-MMAF. […] Data are expressed as the mean (n=3).
(§2) SKBR3 and SKOV3 cells were chosen to evaluate the ability of the recombinant-fusion-full-length-antibody-drug conjugates to inhibit the growth of cancer cells. […] The half-maximal inhibitory concentration IC50 was calculated.

SKOV3 cells = assay: In-vitro cytotoxicity, CCK8 cell viability; details: SKOV3, 48 h, CCK8, mean n=3; Table 9
Method: as §1, §2

SKBR3 cells [2] = assay: Internalization of TAMRA-labeled recombinant fusion antibodies by flow cytometry; details: 2 μM, 6 h, acid wash, compared with non-fused VHH0
Method: The recombinant fusion antibody was labeled a fluorescent molecule and the internalization activity of the labeled antibody was evaluated by flow cytometry.
The procedure included the following steps: First, 5 mM tris (2-carboxyethyl) phosphine (TCEP; Thermo Fisher Scientific) was added to reduce the sulfhydryl group of VHH0 and fused VHH1-VHH26 respectively for approximately 30 min at room temperature, then TCEP was removed by buffer-exchanging with PBS containing 1 mM ethylenediaminetetraacetic acid (EDTA). Next, 2 eq of Maleimide-PEG3-TAMRA was added to the antibody solution and the resulting solution was incubated at 4° C. for 2 h. Lastly, the excess small molecules were removed by buffer-exchanging to obtain TAMRA-labeled VHH0 and fused VHH1-VHH26.
In this example, SKBR3, a human breast cancer cell line with a high expression level of HER2, was used as a model system. […] SKBR3 cells were incubated with TAMRA-labeled antibodies for 6 h, and subsequently washed with acid to remove bound antibodies on the cell membrane, and the fluorescence intensity was analyzed by flow cytometry.

SKBR3 cells [3] = assay: Colocalization of recombinant fusion antibodies with lysosomes by confocal laser scanning microscopy; details: TAMRA-labeled, 4 h, SKBR3, LysoTracker Green; compared with non-fused VHH0
Excerpt: Confocal laser scanning microscope (CLSM) was used to analyze the colocalization of the recombinant fusion antibodies with the lysosome. The antibody-drug conjugate would be transported and processed in the endocytotic pathway as follows: once the antibody-drug conjugate binds to the cell-surface tumor antigen, it is internalized into endosomes, which subsequently mature and fuse with lysosomes. In the lysosomes, the acidic environment and specific proteases (e.g., cathepsin B) degrade the ADC, thus leading to the release of the drug. The free drug traverses the lysosomal membrane, reaches the cytosol and binds to its target, such as microtubule or DNA, thus ultimately triggering cell death. Therefore, the efficacy of an antibody-drug conjugate relies on its internalization and lysosomal trafficking.
In this example, SKBR3 cells were treated with TAMRA-labeled antibodies, including VHH0, fused VHH1-VHH26, mAb0, or fused mAb1-mAb3, for 4 h. The nuclei of SKBR cells were stained by Hoechst 33342 and the lysosomes of cells were stained by LysoTracker Green. The lysosome-trafficking activity of VHH0, fused VHH1-VHH26, mAb0, and fused mAb1-mAb3 was evaluated by confocal laser scanning microscopy. All images were presented under identical conditions. For quantitative analysis, the same threshold value was set for all images.

Molecule	cytotoxicity in HER2-negative cells (MDA-MB-231 cells)	maximal killing (SKBR3 cells [1])	IC50 (SKBR3 cells [1]; Table 7) [nM]	IC50 (SKBR3 cells [1]; Table 8) [nM]	IC50 (SKOV3 cells) [nM]	internalization ability of nanobodies (mean cell fluorescence) (SKBR3 cells [2])	colocalization of nanobodies with lysosomes / lysosomal trafficking (SKBR3 cells [3])
CC[C@H](C)[C@@H]([C@@H](CC(=O)N1CCC[C@H]1[C@H](OC)[C@@H](C)C(=O)N[C@@H](Cc1ccccc1)C(=O)O)OC)N(C)C(=O)[C@@H](NC(=O)[C@@H](NC)C(C)C)C(C)C [MMAF, monomethyl auristatin F, reference compound] (H-[NMeV]V[Dil][Dolaproine]F-OH)	significant cell death	about 50%	53.2	37.4	37.4	–	–
B1	–	–	–	–	–	no significant difference in the internalization ability between fused VHH7 and fused VHH8	No significant difference in lysosomal trafficking
B2	none of the substances are cytotoxic	–	0.319	–	–	–	–
B3	none of the substances are cytotoxic	about 50%	1.57	–	–	–	–
B4	–	–	–	–	–	no significant difference in the internalization ability between fused VHH7 and fused VHH8	No significant difference in lysosomal trafficking
B5	none of the substances are cytotoxic	–	0.336	–	–	–	–
